# Experimental data published in PMC9255746.
# Target: Paracoccidioides americana (Pb03) Cbp1 (Paracoccidioides americana (Pb03))
# Assay: crystal structure
substance,measurement,value
Paracoccidioides americana (Pb03) Cbp1 (natural protein),stoichiometry N,2
